Laboratory results: US20240287202A1 (XYPHOS BIOSCIENCES, published 2024)

Assays:
mouse NKG2D = target: T1, mouse NKG2D (mouse, UniProt O54709 94-232, limits assumed); assay: ELISA on mouse NKG2D, absorbance against nM MicAbody
T1 construct: also called mouse wild-type NKG2D
T1 sequence (looked up): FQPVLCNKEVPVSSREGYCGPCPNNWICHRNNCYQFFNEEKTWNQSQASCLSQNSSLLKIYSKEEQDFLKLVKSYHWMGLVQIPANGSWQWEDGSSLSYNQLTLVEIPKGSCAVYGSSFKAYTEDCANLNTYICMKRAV

[1] = target: Fc-wtNKG2D (wild-type NKG2D ectodomain fused to the C-terminus of human IgG1 Fc) (human) (UniProt P26718); assay: ELISA; wells coated with Fc-wtNKG2D, R3Mab heavy-chain MicAbody titrated
[2] = target: T2, Fc-iNKG2D.YA (NKG2D ectodomain Y152A fused to the C-terminus of human IgG1 Fc) (human, UniProt P26718 78-216); assay: ELISA; wells coated with Fc-iNKG2D.YA, Rituximab.LC-U2S3 titrated, HRP anti-human kappa
T2 construct: range 78-216; it is not tied by words to this Fc fusion; not shown: human IgG1 Fc
T2 sequence: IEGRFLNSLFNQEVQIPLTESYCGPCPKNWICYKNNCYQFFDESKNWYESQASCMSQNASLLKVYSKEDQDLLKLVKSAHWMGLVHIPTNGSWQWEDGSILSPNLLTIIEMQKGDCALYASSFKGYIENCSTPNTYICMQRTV

[3] = target: T2, Fc-iNKG2D.YA (NKG2D ectodomain Y152A …); assay: Octet BLI; Fc-iNKG2D.YA captured on AHC tips, two-fold dilution series of MicAbody from 50 nM
Source text: The y-axes corresponding to binding responses were set to the same scale for all sensograms.

[4] = target: Fc-iNKG2D.YA (NKG2D ectodomain Y152A fused to the C-terminus of human IgG1 Fc) (human) (UniProt P26718); assay: ELISA; wells coated with Fc-iNKG2D.YA, R3Mab heavy-chain MicAbody titrated
[5] = target: T3, His-tagged monomeric ULBP2 R81W (human, UniProt Q9BZM5 29-212); assay: Octet BLI; Fc-wtNKG2D captured on AHC tips, dilution series of His-tagged monomeric ligand
T3 construct: range 29-212; Construct limits are stated only for wild-type ULBP2-His; position 81 counts on the mature protein, not on the UniProt entry
T3 sequence: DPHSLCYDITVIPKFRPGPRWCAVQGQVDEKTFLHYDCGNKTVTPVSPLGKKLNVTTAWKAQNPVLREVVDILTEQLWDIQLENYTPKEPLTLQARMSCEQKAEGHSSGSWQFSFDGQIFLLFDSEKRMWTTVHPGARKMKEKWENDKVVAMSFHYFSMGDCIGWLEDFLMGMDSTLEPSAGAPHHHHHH
Source text: (§1) YA. […] YA were captured with anti-human IgG Fc capture (AHC) biosensor tips then associated with a dilution series of ligand. Data are from single experiments.

[6] = target: T4, A1-A2 domain of human ULBP2 with C-terminal 6x-His tag (monomer) (human, UniProt Q9BZM5 29-212); assay: as above
T4 construct: range 29-212; also called wild-type ULBP2; MIC-His ligand
T4 sequence: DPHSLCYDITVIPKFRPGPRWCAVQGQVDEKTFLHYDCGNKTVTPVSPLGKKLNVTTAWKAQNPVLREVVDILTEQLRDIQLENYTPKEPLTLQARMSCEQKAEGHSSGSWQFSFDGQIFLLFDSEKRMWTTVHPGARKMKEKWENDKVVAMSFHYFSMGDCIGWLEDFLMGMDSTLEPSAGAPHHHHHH
Source text: as §1

[7] = target: T5, A1-A2 domain of human MICB with C-terminal 6x-His tag (monomer) (human, UniProt Q29980 24-205); assay: Octet BLI, response against concentration (legend: monomeric ligands; axis on the sheet: nM Fc-NKG2D.wt)
T5 construct: range 24-205; also called MIC-His ligand
T5 sequence: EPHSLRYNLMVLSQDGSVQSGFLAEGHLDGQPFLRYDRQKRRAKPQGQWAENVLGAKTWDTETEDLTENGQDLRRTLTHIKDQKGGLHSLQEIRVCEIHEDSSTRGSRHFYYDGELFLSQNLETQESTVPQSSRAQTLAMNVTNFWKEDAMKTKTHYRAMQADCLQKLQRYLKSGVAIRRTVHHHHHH

[8] = target: T6, A1-A2 domain of human ULBP3 with C-terminal 6x-His tag (monomer) (human, UniProt Q9BZM4 30-212); assay: as above
T6 construct: range 30-212; also called MIC-His ligand
T6 sequence: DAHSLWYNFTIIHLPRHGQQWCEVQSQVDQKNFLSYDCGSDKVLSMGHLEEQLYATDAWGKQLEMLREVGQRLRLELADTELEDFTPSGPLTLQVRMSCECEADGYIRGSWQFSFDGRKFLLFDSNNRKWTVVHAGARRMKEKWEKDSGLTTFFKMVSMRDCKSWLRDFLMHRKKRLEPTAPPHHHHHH

[9] = target: T7, A1-A2 domain of human MICA*001 with C-terminal 6x-His tag (monomer) (human, UniProt Q29983 24-205); assay: Octet BLI; Fc-wtNKG2D captured on anti-human IgG Fc (AHC) tips, dilution series of His-tagged monomeric ligand
T7 construct: range 24-205; also called MIC-His ligand
T7 sequence: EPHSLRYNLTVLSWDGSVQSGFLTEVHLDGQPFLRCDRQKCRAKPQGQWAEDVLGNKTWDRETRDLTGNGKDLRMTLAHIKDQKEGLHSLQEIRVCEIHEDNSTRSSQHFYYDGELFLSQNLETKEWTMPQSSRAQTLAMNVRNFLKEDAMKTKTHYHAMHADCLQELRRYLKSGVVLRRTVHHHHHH
Source text: Note that all axes are to the same scale (Binding-0 nm, 0.4 nm. 0.8 nm, 1.2 nm (y-axis); Time-0 s, 50 s, 100 s, 150 s, 200 s, 250 s, 300 s, 350 s (x-axis). Data is representative of a single experiment.

MICA-Fc (R&D Systems) = target: T8, MICA-Fc (R&D Systems) (human, UniProt Q29983 24-308, limits assumed); assay: ELISA; ligand-Fc coated, biotinylated Fc-wtNKG2D, streptavidin-HRP (legend: the Fc-NKG2D is titrated; axis on the sheet: nM ligand-Fc)
T8 construct: Bought; also called Ligand-Fc fusion; not shown: Fc of the bought fusion; not described
T8 sequence (looked up): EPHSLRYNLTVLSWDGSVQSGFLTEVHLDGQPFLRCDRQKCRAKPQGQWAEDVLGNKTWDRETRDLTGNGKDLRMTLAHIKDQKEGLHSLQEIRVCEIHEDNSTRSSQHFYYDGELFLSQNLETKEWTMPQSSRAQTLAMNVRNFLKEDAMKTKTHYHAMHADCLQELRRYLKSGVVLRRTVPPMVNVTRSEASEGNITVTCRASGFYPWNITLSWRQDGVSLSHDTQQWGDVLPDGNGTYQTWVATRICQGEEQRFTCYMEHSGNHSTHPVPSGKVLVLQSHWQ

MICB-Fc (R&D Systems) = target: T9, MICB-Fc (R&D Systems) (human, UniProt Q29980 23-298, limits assumed); assay: as above
T9 construct: Bought; also called Ligand-Fc fusion; not shown: Fc of the bought fusion; not described
T9 sequence (looked up): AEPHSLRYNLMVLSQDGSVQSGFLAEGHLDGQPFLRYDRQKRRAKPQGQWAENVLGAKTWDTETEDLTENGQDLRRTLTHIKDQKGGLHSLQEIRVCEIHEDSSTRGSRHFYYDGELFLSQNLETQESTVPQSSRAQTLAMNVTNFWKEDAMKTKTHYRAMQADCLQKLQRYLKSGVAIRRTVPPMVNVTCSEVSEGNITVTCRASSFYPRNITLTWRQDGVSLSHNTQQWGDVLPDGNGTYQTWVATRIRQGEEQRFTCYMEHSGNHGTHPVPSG

ULBP1-Fc (R&D Systems) = target: T10, ULBP1-Fc (R&D Systems) (human, UniProt Q9BZM6 26-216); assay: as above
T10 construct: Bought; also called Ligand-Fc fusion; not shown: Fc of the bought fusion; not described
T10 sequence (looked up): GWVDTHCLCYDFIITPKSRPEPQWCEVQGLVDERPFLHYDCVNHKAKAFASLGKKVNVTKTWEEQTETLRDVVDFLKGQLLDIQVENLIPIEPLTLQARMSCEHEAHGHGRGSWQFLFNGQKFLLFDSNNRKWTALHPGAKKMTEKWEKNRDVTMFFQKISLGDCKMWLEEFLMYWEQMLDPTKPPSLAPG

ULBP3-Fc (R&D Systems) = target: T11, ULBP3-Fc (R&D Systems) (human, UniProt Q9BZM4 30-217); assay: as above
T11 construct: Bought; also called Ligand-Fc fusion; not shown: Fc of the bought fusion; not described
T11 sequence (looked up): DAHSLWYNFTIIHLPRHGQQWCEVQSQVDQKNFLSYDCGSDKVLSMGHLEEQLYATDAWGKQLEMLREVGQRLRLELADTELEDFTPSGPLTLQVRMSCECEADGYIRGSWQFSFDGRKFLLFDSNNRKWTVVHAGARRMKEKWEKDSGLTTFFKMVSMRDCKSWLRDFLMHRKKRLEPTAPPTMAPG

“Trastuzumab.LC-Rae1b (bispecific antibody)” was tested, and the EC50 (read off the curve) (mouse NKG2D) was 1 nM.

B1: R3Mab (anti-FGFR3) heavy-chain C-terminal fusion of wild-type ULBP2 (MicAbody) (bispecific antibody, part only; not given: R3Mab variable regions and Fc, IgG1, not shown: a dimerising Fc or GST)
heavy, part: GGGSDPHSLCYDITVIPKFRPGPRWCAVQGQVDEKTFLHYDCGNKTVTPVSPLGKKLNVTTAWKAQNPVLREVVDILTEQLRDIQLENYTPKEPLTLQARMSCEQKAEGHSSGSWQFSFDGQIFLLFDSEKRMWTTVHPGARKMKEKWENDKVVAMSFHYFSMGDCIGWLEDFLMGMDSTLEPSAG
For B1, the EC50 (read off the curve) [1] was 0.4 nM.

B2: R3Mab (anti-FGFR3) heavy-chain C-terminal fusion of ULBP2 R81W (MicAbody) (bispecific antibody, part only; not given: R3Mab variable regions and Fc, IgG1, not shown: a dimerising Fc or GST)
heavy, part: GGGSDPHSLCYDITVIPKFRPGPRWCAVQGQVDEKTFLHYDCGNKTVTPVSPLGKKLNVTTAWKAQNPVLREVVDILTEQLWDIQLENYTPKEPLTLQARMSCEQKAEGHSSGSWQFSFDGQIFLLFDSEKRMWTTVHPGARKMKEKWENDKVVAMSFHYFSMGDCIGWLEDFLMGMDSTLEPSAG
In the case of B2, the EC50 (read off the curve) [1] is reported as 0.02 nM.

B3: Rituximab.LC-U2S3 MicAbody (U2S3 A1-A2 domain fused to the C-terminus of the rituximab kappa light chain) (bispecific antibody)
heavy: QVQLQQPGAELVKPGASVKMSCKASGYTFTSYNMHWVKQTPGRGLEWIGAIYPGNGDTSYNQKFKGKATLTADKSSSTAYMQLSSLTSEDSAVYYCARSTYYGGDWYFNVWGAGTTVTVSAA
light (part 1 of 2): QIVLSQSPAILSASPGEKVTMTCRASSSVSYIHWFQQKPGSSPKPWIYATSNLASGVPVRFSGSGSGTSYSLTISRVEAEDAATYYCQQWTSNPPTFGGGTKLEIK
light (part 2 of 2): APTSSSGGGGSEPHSLSYDITVIPKFRPGPRWCAVQGQVDEKTFLHYDCGQKTVTPVSPLGKKLQVTTAWKAQNPVLREVVDILTEQLWDIQLENYTPKEPLTLQARMSCEQKAEGHSSGSWQFSFDGQIFLLFDSEKRMWTTVHPGARKMKEKWENDKVVATKLYLWSMGDCIGWLEDFLMGMDSTLEPS
notes: also called Rit-S3; Ritux-S3; not shown: human IgG1 heavy-chain constant region, ADCC-deficient; human kappa light-chain constant region
B3 was tested, and the “EC50 (read off the curve)” value [2] was about 0.03 nM and the Kd [3] was 0.01 nM.

B4: R3Mab (anti-FGFR3) heavy-chain C-terminal fusion of U2S3 (MicAbody) (bispecific antibody, part only; not given: R3Mab variable regions and Fc, IgG1, not shown: a dimerising Fc or GST)
heavy, part: GGGSEPHSLSYDITVIPKFRPGPRWCAVQGQVDEKTFLHYDCGQKTVTPVSPLGKKLQVTTAWKAQNPVLREVVDILTEQLWDIQLENYTPKEPLTLQARMSCEQKAEGHSSGSWQFSFDGQIFLLFDSEKRMWTTVHPGARKMKEKWENDKVVATKLYLWSMGDCIGWLEDFLMGMDSTLEPS
With B4 the EC50 (read off the curve) [4] was 0.02 nM.

B5: Fc-wtNKG2D (wild-type NKG2D ectodomain fused to the C-terminus of human IgG1 Fc) (Fc fusion)
chain: IEGRFLNSLFNQEVQIPLTESYCGPCPKNWICYKNNCYQFFDESKNWYESQASCMSQNASLLKVYSKEDQDLLKLVKSYHWMGLVHIPTNGSWQWEDGSILSPNLLTIIEMQKGDCALYASSFKGYIENCSTPNTYICMQRTV
notes: range 78-216; Dimeric secreted protein from Expi293 cells; also called Fc-NKG2D; not shown: human IgG1 Fc
B5 was tested, and the Kd [5] was 8 nM, the Kd [6] was 350 nM and the binding result [7] was “binds”. B5: binds [8]; binds [9]; binds (MICA-Fc (R&D Systems)). B5: binds (MICB-Fc (R&D Systems)); binds (ULBP1-Fc (R&D Systems)); binds (ULBP3-Fc (R&D Systems)).
